{
  "source": "patent EP4810607A2",
  "key": {"[1]": {"biological_target": "human IL-11 (native, secreted by human fibroblasts in culture) (human) (UniProt P20809)", "sequence (P20809 22-199)": "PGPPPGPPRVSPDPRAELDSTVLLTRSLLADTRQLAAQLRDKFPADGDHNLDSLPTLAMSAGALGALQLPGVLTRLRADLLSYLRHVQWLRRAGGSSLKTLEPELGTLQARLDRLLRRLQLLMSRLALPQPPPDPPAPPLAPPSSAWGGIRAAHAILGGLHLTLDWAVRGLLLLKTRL", "assay": "cell-based or functional assay"}, "[2]": {"biological_target": "mouse IL-11 (endogenous, produced by mouse fibroblasts in culture) (mouse) (UniProt P47873)", "sequence (P47873 22-199 limits assumed)": "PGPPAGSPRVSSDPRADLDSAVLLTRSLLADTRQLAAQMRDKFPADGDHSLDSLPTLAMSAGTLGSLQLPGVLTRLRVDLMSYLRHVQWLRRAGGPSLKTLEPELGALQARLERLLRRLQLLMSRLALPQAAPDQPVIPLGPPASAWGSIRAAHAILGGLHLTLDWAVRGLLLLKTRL", "assay": "cell-based or functional assay"}},
  "data": [
    {"substance": "neutralising anti-human IL-11 monoclonal antibody (Monoclonal Mouse IgG2A; Clone #22626; Catalog No. MAB218; R&D Systems, MN, USA)", "values": [
      {"measurement": "percentage of activated fibroblasts normalised to non-stimulated cultures, TGFβ1-stimulated human atrial fibroblasts (fold of non-stimulated)", "setting": "[1]", "value": 0.99},
      {"measurement": "percentage of activated fibroblasts relative to unstimulated cultures, TGFβ1-stimulated human atrial fibroblasts", "setting": "[1]", "value": 0.89, "unit": "fold"},
      {"measurement": "percentage of activated fibroblasts, TGFβ1-stimulated human atrial fibroblasts", "setting": "[1]", "value": 28.3, "unit": "%"},
      {"measurement": "percentage of activated fibroblasts normalised to non-stimulated cultures, TGFβ1-stimulated mouse dermal fibroblasts (fold of non-stimulated)", "setting": "[2]", "value": 1.24},
      {"measurement": "percentage of activated fibroblasts relative to unstimulated cultures, TGFβ1-stimulated mouse atrial fibroblasts", "setting": "[2]", "value": 1.44, "unit": "fold"},
      {"measurement": "percentage of activated fibroblasts, TGFβ1-stimulated mouse dermal fibroblasts", "setting": "[2]", "value": 39.4, "unit": "%"}
    ]}
  ]
}
